# Test results as given in the Human Domainome abundance scans (Beltran et al. 2025).
# ± gives the uncertainty stated by the source.
# B1: Zinc finger homeobox protein 3, residues 2643 to 2698; numbered along this chain, Q15911 (parent)
# chain: RLRTTITPEQLEILYQKYLLDSNPTRKMLDHIAHEVGLKKRVVQVWFQNTRARERK
# Variants of: B1
# Assay: abundance fitness (aPCA) (normalised: wild type 0, dead -1); higher = more abundant; growth selection in yeast, the domain comes from the species named
# Settings: Homo sapiens
row,Variant,abundance fitness
1,RLRTTITPEQLEILYQKYLLDSNPTRKMLDHIAHEMGLKKRVVQVWFQNTRARERK [V36M],-0.427 ± 0.18
2,RLRTTITPEQLEILYQKYLLDSNPTRKMLDHIAHEGGLKKRVVQVWFQNTRARERK [V36G],-0.732 ± 0.1
3,RGRTTITPEQLEILYQKYLLDSNPTRKMLDHIAHEVGLKKRVVQVWFQNTRARERK [L2G],0.136 ± 0.083
4,RLRTTIWPEQLEILYQKYLLDSNPTRKMLDHIAHEVGLKKRVVQVWFQNTRARERK [T7W],-0.719 ± 0.12
5,RLRTTITPEQLEILYQKYLLDSNPTRKMLDHIAHEVGLKKRVVQCWFQNTRARERK [V45C],-0.329 ± 0.12
6,RLRTTITPEQLEILYQKYLLDSNPTRKMLDHIAHEVGLKKRVVQNWFQNTRARERK [V45N],-0.489 ± 0.17
7,RLRTTITPEQLEILYQKYLLDSNPTWKMLDHIAHEVGLKKRVVQVWFQNTRARERK [R26W],0.401 ± 0.09
8,RLRTTITPEQLEILYQKYLLDSNPTKKMLDHIAHEVGLKKRVVQVWFQNTRARERK [R26K],0.123 ± 0.12
9,RLRTTITPEQLEILYQKYLYDSNPTRKMLDHIAHEVGLKKRVVQVWFQNTRARERK [L20Y],-0.466 ± 0.19
10,RLRTTITPEQLEILYQKYLEDSNPTRKMLDHIAHEVGLKKRVVQVWFQNTRARERK [L20E],-0.079 ± 0.15
11,RLRTTITPEQLEILYQKYLRDSNPTRKMLDHIAHEVGLKKRVVQVWFQNTRARERK [L20R],-0.331 ± 0.077
12,RLRTTITPIQLEILYQKYLLDSNPTRKMLDHIAHEVGLKKRVVQVWFQNTRARERK [E9I],-0.241 ± 0.078
13,RLRTTITPRQLEILYQKYLLDSNPTRKMLDHIAHEVGLKKRVVQVWFQNTRARERK [E9R],-0.277 ± 0.077
14,RLRTTITPWQLEILYQKYLLDSNPTRKMLDHIAHEVGLKKRVVQVWFQNTRARERK [E9W],-0.516 ± 0.11
15,RLRTTITPSQLEILYQKYLLDSNPTRKMLDHIAHEVGLKKRVVQVWFQNTRARERK [E9S],-0.267 ± 0.071
16,RLRTTITPEQLEILYQKYLLDSNPTRKMLDHIAHHVGLKKRVVQVWFQNTRARERK [E35H],-0.274 ± 0.13
17,RLRTTITPEQLEILYQKYLLDSNPTRKMLDHIAHEVGLKKRVVQVWFQNTEARERK [R51E],-0.163 ± 0.1
18,RLRTTITPEQLEILYQKYLLDSNPTRKMLQHIAHEVGLKKRVVQVWFQNTRARERK [D30Q],0.1 ± 0.14
19,RLRTTITPEQLEILYQKYLLDSNPTRKMLKHIAHEVGLKKRVVQVWFQNTRARERK [D30K],-0.214 ± 0.13
20,RLRTTITPEQLEILYQKYLLDSNPTRKMLDHIAHEVGLKKRVVQVWFQNTRARERV [K56V],-0.073 ± 0.18
21,RLRTTITPEQLEILYQKYLLDSNPTRKMLDHIAHEVGLKKRVVQVWFQNTRARERQ [K56Q],0.032 ± 0.21
22,RLRTTITPEQLEILYQKYLLDSNPTRKMLDHIAHEVGLKKRVVQVWFQNTRARERM [K56M],-0.204 ± 0.4
23,RLRTTITPEQLEILYQKYLLDSNPTRKMLDHIAHEVGLKKRVIQVWFQNTRARERK [V43I],-0.127 ± 0.15
24,RLRTTITPEQLEILYQKYLLDSNPTRKMLDHIAHEVGLKKRVNQVWFQNTRARERK [V43N],-0.64 ± 0.2

row,Variant,abundance fitness
1,RLRTTITPEQLEILYQKYLLDSNPTRKMLDHIAHEVGLKKRVVCVWFQNTRARERK [Q44C],-0.193 ± 0.17
2,RLRTTITPEQLEILYQKYLLDSNPTRKMLDHIAHEVGLKKRVVTVWFQNTRARERK [Q44T],-0.209 ± 0.098
3,RLRTTITPEQLEILYQKYLLDSNPTRKMLDHIAHEVGLKKRVVMVWFQNTRARERK [Q44M],-0.164 ± 0.1
4,RLRTTITPEQLEILYQKILLDSNPTRKMLDHIAHEVGLKKRVVQVWFQNTRARERK [Y18I],-0.62 ± 0.23
5,RLRTTITPEQLEILYQKYLLDSNPTRKMLDHIAHEVGLKKRVVQVWFQMTRARERK [N49M],-0.331 ± 0.15
6,RLRTTITPEQLEITYQKYLLDSNPTRKMLDHIAHEVGLKKRVVQVWFQNTRARERK [L14T],-1.04 ± 0.17
7,RLRTTITPEQLEIVYQKYLLDSNPTRKMLDHIAHEVGLKKRVVQVWFQNTRARERK [L14V],-0.926 ± 0.12
8,RLRTTITPEQLEIRYQKYLLDSNPTRKMLDHIAHEVGLKKRVVQVWFQNTRARERK [L14R],-0.847 ± 0.089
9,RLRTTITPEQLEIIYQKYLLDSNPTRKMLDHIAHEVGLKKRVVQVWFQNTRARERK [L14I],-0.951 ± 0.27
10,RLRTTITPEQLEIDYQKYLLDSNPTRKMLDHIAHEVGLKKRVVQVWFQNTRARERK [L14D],-0.568 ± 0.25
11,RLRTTITPEQLEILYQKYLLDSNPTRKMLDHIAHEVGLKKRVVQVWFQNTRARECK [R55C],0.263 ± 0.099
12,RLRTTITPEQLEILYQKYLLDSNYTRKMLDHIAHEVGLKKRVVQVWFQNTRARERK [P24Y],-0.548 ± 0.19
13,RLRTTITPEQLEILYQKYLLDSNSTRKMLDHIAHEVGLKKRVVQVWFQNTRARERK [P24S],-0.764 ± 0.11
14,RLRTTITPEQLEILYQKYLLDSNRTRKMLDHIAHEVGLKKRVVQVWFQNTRARERK [P24R],-0.828 ± 0.082
15,RLRTTITPEQLEILRQKYLLDSNPTRKMLDHIAHEVGLKKRVVQVWFQNTRARERK [Y15R],0.032 ± 0.074
16,RLRHTITPEQLEILYQKYLLDSNPTRKMLDHIAHEVGLKKRVVQVWFQNTRARERK [T4H],-0.337 ± 0.17
17,RLRFTITPEQLEILYQKYLLDSNPTRKMLDHIAHEVGLKKRVVQVWFQNTRARERK [T4F],-0.378 ± 0.24
18,RLRTTITPEQLEILYQKYLLDSNPTRKMLDHIAHEVGLQKRVVQVWFQNTRARERK [K39Q],0.108 ± 0.15
19,RLRTTITPEQLEILYQKYLLDSNPTRKMLDYIAHEVGLKKRVVQVWFQNTRARERK [H31Y],-0.014 ± 0.19
20,RLRTTITPEQLEILYQKYLLDSNPTRKMLDLIAHEVGLKKRVVQVWFQNTRARERK [H31L],0.056 ± 0.095
21,RLRTTITPEQLEILYQKYLLDSNPTRKMLDDIAHEVGLKKRVVQVWFQNTRARERK [H31D],0.348 ± 0.1
22,RLRTTITGEQLEILYQKYLLDSNPTRKMLDHIAHEVGLKKRVVQVWFQNTRARERK [P8G],0.193 ± 0.079
23,RLRTTITPEQLEILYQKYLLDSNPTRKMLDHIAHEVGNKKRVVQVWFQNTRARERK [L38N],-1.02 ± 0.24
